Source: patent publication US7244577

Biological target: low-density lipoprotein (LDL) particles, 125I-labelled
Experiment: cell-based or functional assay

| Substance | uptake of 125I-LDL by FH fibroblasts infected with LRP5 adenovirus [% increase] | uptake of 125I-LDL by FH fibroblasts infected with LDL-receptor adenovirus [fold] |
| --- | --- | --- |
| human LDL-receptor related protein-5 (LRP5), isoform 1 (from UniProt O75197 32-1615) | 60 |  |
| LDL-receptor (from UniProt P01130 22-860) (receptor; the values are: fold increase in LDL uptake) |  | 20 |
